Laboratory results reported in patent US20070136889A1 (CROPDESIGN N V, published 2007).
Positions count from the first letter of the chain named. Names and notes keep the numbering of the source.

Columns and labels:
[1] = molecular target: T1, GAL4 DNA-binding domain only (plasmid pGBT9) (UniProt P04386 1-147); assay: yeast two-hybrid, his3 reporter, control with empty pGBT9
T1 construct: Negative control of the two-hybrid assay; also called empty pGBT9 vector
Method: The need for this C-terminal domain for the interaction with CDC2At was assayed using the two-hybrid system. A gene encoding a truncated CKS1At protein was created by mutating the Tyr73 codon to a stop codon, thereby deleting the last 15 amino acids. Subsequently, this mutated gene was cloned in frame with the GAL4 activation domain, resulting in the pGADCDSQ plasmid. This vector was introduced into the HF7c yeast reporter strain, together with pGBTCDC2A or the empty pGBT9 vector. […] Therefore, this part of the CKS1At protein might be involved in the interaction with other proteins or may improve the stability of the CDK-CKS1At interaction.

[2] = molecular target: T2, GAL4 DNA-binding domain-CDC2aAt fusion protein encoded by pGBTCDC2A (Arabidopsis thaliana, UniProt P04386 1-147; P24100 1-294); assay: yeast two-hybrid, his3 reporter, control with GAL4 activation domain only
T2 construct: Two-hybrid bait

CDC2aAt protein = molecular target: T3, CDC2aAt protein (Arabidopsis thaliana, UniProt P24100 1-294); assay: co-immunoprecipitation with the CKS1At antibody from extracts of G1/S cells, blot probed with the CDC2aAt antibody
T3 construct: Endogenous protein in extracts of partially synchronized Arabidopsis cell suspensions
Method: Arabidopsis thaliana cell suspensions were partially synchronized by the addition of aphidicolin to freshly diluted cell suspension cells. After 24 hours the drug was washed away and cells were cultivated in new medium. Samples were collected at several time points and partly used for nuclei preparation, partly for protein extraction. […] The CKS1At containing complexes were precipitated with the use of a CKS1At specific antibody (see example 9 of this application). These complexes were resolved on a SDS PAGE gel and immunoblotted. The presence of CDC2aAt as a component of the immuno-precipitated complexes was verified by probing this blot with a CDC2aAt specific antibody. This antibody detected a specific band of the correct molecular size in the extracts of the G1/S cells.

[3] = molecular target: T4, GAL4 DNA-binding domain-CDC2bAt fusion protein encoded by pGBTCDC2B (Arabidopsis thaliana, UniProt P04386 1-147; P25859 1-309); assay: yeast two-hybrid, his3 reporter
T4 construct: Two-hybrid bait
Method: The recently published structure of the human CDK2 protein in complex with the human CKS1At homologue CKSHs1 helped to identify the amino-acids in the CKS/SUC1 proteins important for interaction with CDKs. Based upon this information the E61 residue of CKS1At was mutated into Q61 by PCR. The consequences of this mutation upon the binding affinity for CDC2aAt and CDC2bAt were tested with the use of a two-hybrid system utilizing the his3 gene as reporter gene. The coding region of both the wild type CKS1At and the mutated CKS1At.Q61 gene was cloned in frame with the GAL4 activation domain in the pGAD424 vector, resulting in the pGADCKS and pGADCKS.Q61 respectively. These vectors were used to cotransform the HF7c yeast cells with pGBTCDC2A or pGBTCDC2B. The pGBTCDC2A and pGBTCDC2B vectors encode for a fusion protein between the GAL4 DNA-binding domain and CDC2aAt or CDC2bAt respectively. The transformants were plated on selective medium in the absence of histidine to test the interactions between CKS1At and CKS1At.Q61 with CDC2aAt and CDC2bAt. Transformants were also streaked on medium containing 10, 20, 40, 80 or 160 mM 3-amino-1,2,4-triazole (3-AT). 3-AT acts as a competitive inhibitor of the his3 gene product.

T3 sequence (P24100 whole entry): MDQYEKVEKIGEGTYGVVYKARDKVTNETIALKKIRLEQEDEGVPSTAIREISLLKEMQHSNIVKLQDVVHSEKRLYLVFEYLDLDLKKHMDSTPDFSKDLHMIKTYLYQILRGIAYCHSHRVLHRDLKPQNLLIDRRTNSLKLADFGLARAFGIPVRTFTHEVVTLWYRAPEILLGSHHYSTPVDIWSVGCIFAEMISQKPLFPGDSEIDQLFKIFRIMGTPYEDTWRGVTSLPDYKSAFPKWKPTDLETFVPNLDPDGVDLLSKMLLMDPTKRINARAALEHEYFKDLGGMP

B1: GAL4 activation domain fused to truncated CKS1At lacking the last 15 amino acids, encoded by pGADCKSQ (other, not shown: large carriers)
chain: MGQIQYSEKYFDDTFEYRHVVLPPEVAKLLPKNRLLSENEWRAIGVQQSRGWVHYAVHRPEPHIMLFRRPLN
notes: Tyr73 codon mutated to a stop codon, deleting the last 15 amino acids; also called pGADCDSQ; truncated CKS1At protein
[1]
  binding result: no binding

B2: GAL4 activation domain only (vector pGAD424) (other, UniProt P04386 768-881, looked up)
chain: ANFNQSGNIADSSLSFTFTNSSNGPNLITTQTNSQALSQPIASSNVHDNFMNNEITASKIDDGNNSKPLSPGWTDQTAYNAFGITTGMFNTTTMDDVYNYLFDDEDTPPNPKKE
notes: Negative control of the two-hybrid assay
[2]
  binding result: no binding

B3: CKS1At protein (CDK-associating subunit from Arabidopsis thaliana) (other)
chain: MGQIQYSEKYFDDTFEYRHVVLPPEVAKLLPKNRLLSENEWRAIGVQQSRGWVHYAVHRPEPHIMLFRRPLNYQQQQENQAQNMLVK
notes: also called wild type CKS1At
CDC2aAt protein
  binding result: binds

B4: GAL4 activation domain-CKS1At.Q61 fusion protein encoded by pGADCKS.Q61 (other, not shown: large carriers; small tags and cut ends)
chain: B3 chain with E61Q
notes: Two-hybrid prey with the E61 residue of CKS1At mutated into Q61; also called CKS1At mutant E61Q
[3]
  binding result: no binding
